Each substance was assayed against complement component C3b (human) (UniProt P01024) (assay: SPR).

In order of rising Kd:
1. membrane-cofactor protein MCP CCP1–4 (residues 35–285), from E. coli (from UniProt P15529 35-285) (domain or fragment)  350 nM
2. smallpox inhibitor of complement enzymes, SPICE CCP1–4 (residues 19–263) (natural protein)  1300 nM
3. complement receptor 1 CR1 CCP15–17 (residues 942–1,136) (from UniProt P17927 942-1136) (domain or fragment)  1900 nM
4. decay-accelerating factor DAF CCP1–4 (domain or fragment)  6100 nM
5. factor H FH CCP1–4 (domain or fragment)  7200 nM

Source: paper PMC4868954
